Measurements published in the supplement of paper PMC10567573.

B1: FBXO39 (parent)
chain: PSRVHASEVESAVWYVKKFGRYLE
B2: MATN2 (parent)
chain: TDDSYSCHCLKGFTLNPDKKTCRR

Variants of: B1
Assay: protein stability index of a GFP-peptide fusion (GPS, HEK-293T) (PSI 1-6); higher = more stable
Conditions: c terminus: a fixed tail appended
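Further: lentivirally expressed fusions sorted by FACS into six bins by GFP to DsRed ratio, PSI derived from sequencing read proportions per bin multiplied by bin number.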

Protein stability index, by site and new letter:
Y22: K 3.58; F 1.91; E 2.58; R 2.98; Q 2.74; V 2.28; H 2.69; I 1.85; L 1.62; G 2.85; W 3.81; C 2.44; M 2.1; T 2.03; S 2.58; N 2.71; A 2.39; D 2.89; P 2.67
L23: Y 2.53; E 2.26; N 2.5; F 2.05; A 2.59; C 2.26; K 3.07; M 2.09; P 2.58; T 2.32; Q 2.74; H 2.45; V 2.49; G 1.48; S 2.76; W 2.08; D 2.9; R 2.5; I 2.17
G20: Q 2.55; A 3.14; N 2.38; F 1.55; M 2.09; K 2.19; D 2.27; E 2.95; R 2.1; Y 1.46; L 1.75; V 1.96; S 2.04; H 1.62; I 1.91; P 1.64; T 1.28; W 2.97
R21: A 1.74; W 2.08; Q 2.09; D 3; C 1.47; L 1.53; F 1.9; Y 1.65; V 2.42; N 2.3; S 2.22; M 1.37; I 2.19; T 2.08; P 1.98; K 1.87; E 2.5; G 2.42; H 2.04
F19: M 2.14; T 2.55; W 2.12; L 2.22; Y 2.5; I 1.88; P 2.72; V 1.98; R 2.88; K 3.32; Q 2.79; S 2.42; N 3.43
E24: D 1.9; T 2.55; H 1.94; C 2.42; Q 1.99; W 2.33; P 2.26; G 1.94; F 1.94; I 2.01; L 1.54; V 1.74; K 2.13; R 2.22; A 1.59; Y 2.2; M 2.07; N 2.06; S 1.83

Variants of: B2
Assay: as above
Conditions: c terminus: a fixed tail appended

Protein stability index: each site, then its substitutions
D18: C 2.57; M 2.48; Y 1.95; S 2.27; E 1.77; P 2.61; L 2.23
D3: M 2.31; R 2.2; Q 2.13; W 1.41; N 2.1; I 1.91; P 2.93; S 2.24; G 2.36
C7: V 4.28; A 4.59; M 4.22; P 3.65; Y 3.71; I 3.9; S 4.54
C22: H 2.18; G 2.27; M 1.88; Q 2.27; Y 1.94; W 1.67; N 2.75; E 2.02; V 3.13
L10: G 2.91; V 1.72; D 3.55; E 2.22; M 1.9; Q 1.77; A 2.48; F 2.46; K 2.63; W 2.98
C9: F 3.47; V 3.73; N 4.57; S 4.48; R 3.88; P 4.53; K 4.03; Q 4.1
R24: D 3.73; K 2.99; S 2.87; V 2.32; F 2.5; W 1.99; C 5.18; E 3.43; Q 2.61; N 3.25
Y5: P 2.14; A 3.04; Q 3.42; S 2.66; G 2.69; K 2.65; V 2.86; M 3.58; F 2.36; L 3.53; T 2.58; W 2.23; I 2.06
T1: N 1.86; V 3.42; R 2.95; P 2.81; A 2.47; S 2.63; W 2.35; L 2.36; E 2.09; H 2.7
P17: I 2.01; N 2.28; L 2.02; D 2.65; V 2.92; S 2.11; T 2.5; E 2.77; A 2.25; F 2.3; K 2.63
K19: T 2.06; H 3.66; A 2.46; I 2.01; M 2.17; R 2.12; N 2.2; G 1.62
S4: T 2.04; V 2.22; H 2.66; I 2.87; L 1.84; N 1.23; R 2.03; P 2.64; Q 2.3
K20: D 2.29; T 1.6; C 4.55; F 1.85; I 2.1; Q 2.95; N 2.04; H 2.17; L 1.32; V 1.77; P 1.93
T14: M 1.64; I 2.02; E 2.23; R 2; K 2.16; G 2.24; P 1.79; C 2.31; Y 1.6; F 1.32; H 2.36; Q 1.67
D2: L 2.81; N 2.32; F 1.41; M 2.09; W 2.24
L15: Y 2.45; C 2.9; E 2.58; I 2.12; A 2.45; P 2.42; F 2.86; M 2.38; W 2.48; Q 2.8; V 2.55; T 2.02; K 2.64
S6: T 2.19; D 2.94; K 3.07; L 2.15; G 2.4; I 1.89; Y 2.12; N 1.93
R23: E 2.52; S 2.29; L 2.36; V 2.48; F 1.86; N 2.71; G 2.62; K 2.76
K11: L 2.04; R 2.04; C 2.51; V 2.06; Q 1.83
G12: C 2.54; K 2.41; N 2.24; T 2.39; D 2.19; A 2.45; F 1.98; L 2.45; Y 1.73; W 2.01
H8: K 4.02; G 2.76; R 2.51; Y 2.71; T 2.08; C 2.05; Q 2.18; F 2.14; P 1.63; W 2.63; I 2.27; M 2.92
N16: T 1.91; C 2.97; I 2.89; P 2.85; W 1.6; Q 1.56; F 1.8; K 2.33; H 2.3; Y 2.4
F13: M 2.71; N 1.81; A 2.88; T 2.3; W 2.44; P 2.74; C 2.39; E 2.45; D 2.27; K 2.55
T21: G 1.33; E 2.89; D 2.6; F 1.57; N 2.32; Q 2.64; H 2.62; R 2.34; W 1.83; C 2.75; Y 2.27; A 2.2
